Source: paper PMC10786891, “Massively parallel profiling of RNA-targeting CRISPR-Cas13d”

T1: EsCas13d, nuclease-dead (Eubacterium siraeum, UniProt B0MS50, R295A;H300A;R849A;H854A)
T1 sequence: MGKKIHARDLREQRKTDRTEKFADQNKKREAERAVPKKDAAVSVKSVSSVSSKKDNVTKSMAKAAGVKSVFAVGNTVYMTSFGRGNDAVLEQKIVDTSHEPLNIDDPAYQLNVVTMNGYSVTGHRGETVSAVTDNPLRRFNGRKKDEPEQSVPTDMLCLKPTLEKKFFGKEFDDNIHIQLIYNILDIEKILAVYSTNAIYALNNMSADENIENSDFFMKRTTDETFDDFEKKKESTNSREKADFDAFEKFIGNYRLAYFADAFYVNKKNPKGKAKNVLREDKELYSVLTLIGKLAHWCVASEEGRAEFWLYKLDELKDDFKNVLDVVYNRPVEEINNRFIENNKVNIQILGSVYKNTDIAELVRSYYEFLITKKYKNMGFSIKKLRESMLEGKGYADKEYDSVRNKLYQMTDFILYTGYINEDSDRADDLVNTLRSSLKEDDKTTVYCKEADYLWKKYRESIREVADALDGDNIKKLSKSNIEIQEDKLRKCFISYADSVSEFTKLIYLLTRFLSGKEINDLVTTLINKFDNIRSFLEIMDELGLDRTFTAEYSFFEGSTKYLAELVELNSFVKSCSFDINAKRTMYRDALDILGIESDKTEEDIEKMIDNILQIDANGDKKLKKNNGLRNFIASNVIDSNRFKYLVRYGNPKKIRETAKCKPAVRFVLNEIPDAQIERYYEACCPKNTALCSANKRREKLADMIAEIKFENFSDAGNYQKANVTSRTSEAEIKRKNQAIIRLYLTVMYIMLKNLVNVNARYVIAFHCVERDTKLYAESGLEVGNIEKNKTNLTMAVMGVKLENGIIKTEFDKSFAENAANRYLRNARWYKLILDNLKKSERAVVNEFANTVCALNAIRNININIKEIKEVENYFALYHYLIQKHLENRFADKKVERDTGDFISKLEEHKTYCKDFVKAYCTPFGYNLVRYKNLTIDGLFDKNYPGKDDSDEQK

B1: target 3 insU 3' of 11,insA 3' of 2 (mixed)
RNA 1: CACCCGUGCAAAAUUGCAGGGGUCUAAAACGACCUGAAUAUUUCAGAUCAAA
RNA 2: GGGAAUGGAUCCACAUCUACGAAUUCGUUUUUGAUCUGAAAUUAUUCAGGUACUGCAGAUCGGAAGAGCACACGU
B2: target 3 insC 3' of 5,insA 3' of 1 (mixed)
RNA 1: CACCCGUGCAAAAUUGCAGGGGUCUAAAACGACCUGAAUAUUUCAGAUCAAA
RNA 2: GGGAAUGGAUCCACAUCUACGAAUUCGUUUUUGAUCUGAAAUAUUCACGGUCAUGCAGAUCGGAAGAGCACACGU
B3: target 3 C6G,U7G (mixed)
RNA 1: CACCCGUGCAAAAUUGCAGGGGUCUAAAACGACCUGAAUAUUUCAGAUCAAA
RNA 2: GGGAAUGGAUCCACAUCUACGAAUUCGUUUUUGAUCUGAAAUAUGGAGGUCUGCAGAUCGGAAGAGCACACGU
B4: target 3 insA 3' of 6,insC 3' of 3 (mixed)
RNA 1: CACCCGUGCAAAAUUGCAGGGGUCUAAAACGACCUGAAUAUUUCAGAUCAAA
RNA 2: GGGAAUGGAUCCACAUCUACGAAUUCGUUUUUGAUCUGAAAUAUUCAAGGCUCUGCAGAUCGGAAGAGCACACGU
B5: target 3 insA 3' of 6,insU 3' of 3 (mixed)
RNA 1: CACCCGUGCAAAAUUGCAGGGGUCUAAAACGACCUGAAUAUUUCAGAUCAAA
RNA 2: GGGAAUGGAUCCACAUCUACGAAUUCGUUUUUGAUCUGAAAUAUUCAAGGUUCUGCAGAUCGGAAGAGCACACGU
B6: target 3 insU 3' of 18,insC 3' of 11 (mixed)
RNA 1: CACCCGUGCAAAAUUGCAGGGGUCUAAAACGACCUGAAUAUUUCAGAUCAAA
RNA 2: GGGAAUGGAUCCACAUCUACGAAUUCGUUUUUGAUUCUGAAACUAUUCAGGUCUGCAGAUCGGAAGAGCACACGU
B7: target 3 insA 3' of 22 (mixed)
RNA 1: CACCCGUGCAAAAUUGCAGGGGUCUAAAACGACCUGAAUAUUUCAGAUCAAA
RNA 2: GGGAAUGGAUCCACAUCUACGAAUUCGUUUAUUGAUCUGAAAUAUUCAGGUCUGCAGAUCGGAAGAGCACACGU
B8: target 3 insG 3' of 5,insG 3' of 1 (mixed)
RNA 1: CACCCGUGCAAAAUUGCAGGGGUCUAAAACGACCUGAAUAUUUCAGAUCAAA
RNA 2: GGGAAUGGAUCCACAUCUACGAAUUCGUUUUUGAUCUGAAAUAUUCAGGGUCGUGCAGAUCGGAAGAGCACACGU
B9: target 3 insA 3' of 4,insU 3' of 4 (mixed)
RNA 1: CACCCGUGCAAAAUUGCAGGGGUCUAAAACGACCUGAAUAUUUCAGAUCAAA
RNA 2: GGGAAUGGAUCCACAUCUACGAAUUCGUUUUUGAUCUGAAAUAUUCAGAUGUCUGCAGAUCGGAAGAGCACACGU
B10: target 3 insC 3' of 21,insG 3' of 5 (mixed)
RNA 1: CACCCGUGCAAAAUUGCAGGGGUCUAAAACGACCUGAAUAUUUCAGAUCAAA
RNA 2: GGGAAUGGAUCCACAUCUACGAAUUCGUUUUCUGAUCUGAAAUAUUCAGGGUCUGCAGAUCGGAAGAGCACACGU
B11: target 3 insU 3' of 9,insG 3' of 9 (mixed)
RNA 1: CACCCGUGCAAAAUUGCAGGGGUCUAAAACGACCUGAAUAUUUCAGAUCAAA
RNA 2: GGGAAUGGAUCCACAUCUACGAAUUCGUUUUUGAUCUGAAAUAUGUUCAGGUCUGCAGAUCGGAAGAGCACACGU
B12: target 3 insA 3' of 20,insC 3' of 20 (mixed)
RNA 1: CACCCGUGCAAAAUUGCAGGGGUCUAAAACGACCUGAAUAUUUCAGAUCAAA
RNA 2: GGGAAUGGAUCCACAUCUACGAAUUCGUUUUUACGAUCUGAAAUAUUCAGGUCUGCAGAUCGGAAGAGCACACGU
B13: target 3 G3C,U21A (mixed)
RNA 1: CACCCGUGCAAAAUUGCAGGGGUCUAAAACGACCUGAAUAUUUCAGAUCAAA
RNA 2: GGGAAUGGAUCCACAUCUACGAAUUCGUUUAUGAUCUGAAAUAUUCAGCUCUGCAGAUCGGAAGAGCACACGU
B14: target 3 insA 3' of 7,insC 3' of 4 (mixed)
RNA 1: CACCCGUGCAAAAUUGCAGGGGUCUAAAACGACCUGAAUAUUUCAGAUCAAA
RNA 2: GGGAAUGGAUCCACAUCUACGAAUUCGUUUUUGAUCUGAAAUAUUACAGCGUCUGCAGAUCGGAAGAGCACACGU
B15: target 3 insC 3' of 9,insG 3' of 7 (mixed)
RNA 1: CACCCGUGCAAAAUUGCAGGGGUCUAAAACGACCUGAAUAUUUCAGAUCAAA
RNA 2: GGGAAUGGAUCCACAUCUACGAAUUCGUUUUUGAUCUGAAAUACUUGCAGGUCUGCAGAUCGGAAGAGCACACGU
B16: target 3 C1A,U2A (mixed)
RNA 1: CACCCGUGCAAAAUUGCAGGGGUCUAAAACGACCUGAAUAUUUCAGAUCAAA
RNA 2: GGGAAUGGAUCCACAUCUACGAAUUCGUUUUUGAUCUGAAAUAUUCAGGAAUGCAGAUCGGAAGAGCACACGU
B17: target 3 C1A (mixed)
RNA 1: CACCCGUGCAAAAUUGCAGGGGUCUAAAACGACCUGAAUAUUUCAGAUCAAA
RNA 2: GGGAAUGGAUCCACAUCUACGAAUUCGUUUUUGAUCUGAAAUAUUCAGGUAUGCAGAUCGGAAGAGCACACGU
B18: target 3 C1G,A18G (mixed)
RNA 1: CACCCGUGCAAAAUUGCAGGGGUCUAAAACGACCUGAAUAUUUCAGAUCAAA
RNA 2: GGGAAUGGAUCCACAUCUACGAAUUCGUUUUUGGUCUGAAAUAUUCAGGUGUGCAGAUCGGAAGAGCACACGU
B19: target 3 U2C,C6A (mixed)
RNA 1: CACCCGUGCAAAAUUGCAGGGGUCUAAAACGACCUGAAUAUUUCAGAUCAAA
RNA 2: GGGAAUGGAUCCACAUCUACGAAUUCGUUUUUGAUCUGAAAUAUUAAGGCCUGCAGAUCGGAAGAGCACACGU
B20: target 3 U2G,U7G (mixed)
RNA 1: CACCCGUGCAAAAUUGCAGGGGUCUAAAACGACCUGAAUAUUUCAGAUCAAA
RNA 2: GGGAAUGGAUCCACAUCUACGAAUUCGUUUUUGAUCUGAAAUAUGCAGGGCUGCAGAUCGGAAGAGCACACGU
B21: target 3 A9G,U22A (mixed)
RNA 1: CACCCGUGCAAAAUUGCAGGGGUCUAAAACGACCUGAAUAUUUCAGAUCAAA
RNA 2: GGGAAUGGAUCCACAUCUACGAAUUCGUUAUUGAUCUGAAAUGUUCAGGUCUGCAGAUCGGAAGAGCACACGU
B22: target 3 C1G,U10A (mixed)
RNA 1: CACCCGUGCAAAAUUGCAGGGGUCUAAAACGACCUGAAUAUUUCAGAUCAAA
RNA 2: GGGAAUGGAUCCACAUCUACGAAUUCGUUUUUGAUCUGAAAAAUUCAGGUGUGCAGAUCGGAAGAGCACACGU
B23: target 3 insG 3' of 7,insU 3' of 6 (mixed)
RNA 1: CACCCGUGCAAAAUUGCAGGGGUCUAAAACGACCUGAAUAUUUCAGAUCAAA
RNA 2: GGGAAUGGAUCCACAUCUACGAAUUCGUUUUUGAUCUGAAAUAUUGCUAGGUCUGCAGAUCGGAAGAGCACACGU
B24: target 3 insC 3' of 7,insU 3' of 5 (mixed)
RNA 1: CACCCGUGCAAAAUUGCAGGGGUCUAAAACGACCUGAAUAUUUCAGAUCAAA
RNA 2: GGGAAUGGAUCCACAUCUACGAAUUCGUUUUUGAUCUGAAAUAUUCCAUGGUCUGCAGAUCGGAAGAGCACACGU
B25: target 3 insC 3' of 13,insG 3' of 2 (mixed)
RNA 1: CACCCGUGCAAAAUUGCAGGGGUCUAAAACGACCUGAAUAUUUCAGAUCAAA
RNA 2: GGGAAUGGAUCCACAUCUACGAAUUCGUUUUUGAUCUGACAAUAUUCAGGUGCUGCAGAUCGGAAGAGCACACGU
B26: target 1 insC 3' of 12,insU 3' of 4 (mixed)
RNA 1: CACCCGUGCAAAAAUGCAGGGGUCUAAAACUGAGCGGAUAACCUCUCUAUGG
RNA 2: GGGAAUGGAUCCACAUCUACGAAUUCGUACCAUAGAGAGGCUUAUCCGCUUCACCGAGAUCGGAAGAGCACACGU
B27: target 1 insA 3' of 22,insA 3' of 6 (mixed)
RNA 1: CACCCGUGCAAAAAUGCAGGGGUCUAAAACUGAGCGGAUAACCUCUCUAUGG
RNA 2: GGGAAUGGAUCCACAUCUACGAAUUCGUACACAUAGAGAGGUUAUCCAGCUCACCGAGAUCGGAAGAGCACACGU
B28: target 1 insA 3' of 17,insG 3' of 3 (mixed)
RNA 1: CACCCGUGCAAAAAUGCAGGGGUCUAAAACUGAGCGGAUAACCUCUCUAUGG
RNA 2: GGGAAUGGAUCCACAUCUACGAAUUCGUACCAUAGAAGAGGUUAUCCGCUGCACCGAGAUCGGAAGAGCACACGU

target: T1, EsCas13d, nuclease-dead; assay: crRNA (strand 1, pre-loaded); Mg2+; 40 mM Tris-HCl pH 7.5, 150 mM NaCl, 6 mM MgCl2, 1 mM DTT, 0.1% Tween-20, 0.2 mg/ml BSA; 25 C; 10 min per concentration, then washed; conditions: tags: His6-TwinStrep-SUMO cleaved; N-terminal SNAP kept (SNAP-Surface 488); label: 3' end held by stalled T7 RNA polymerase

Question: With B1 as the binder, how does the Kd read?
Answer: The Kd was 56.5 ± 8.5 nM.

Question: How did the Kd turn out when B2 was run?
Answer: The Kd was 23.1 ± 4.05 nM.

Question: With B3 as the binder, how does the Kd read?
Answer: Its Kd is 46.5 ± 4.5 nM.

Question: For B4, which Kd is on record?
Answer: Its Kd is 7.7 ± 0.6 nM.

Question: How did the Kd turn out when B5 was run?
Answer: The Kd was 5.25 ± 0.5 nM.

Question: How did the Kd turn out when B6 was run?
Answer: Its Kd is 49 ± 9 nM.

Question: How did the Kd turn out when B7 was run?
Answer: Its Kd is 20.6 ± 3.4 nM.

Question: For B8, which Kd is on record?
Answer: The Kd was 37 ± 9.5 nM.

Question: How did the Kd turn out when B9 was run?
Answer: The Kd was 44 ± 16 nM.

Question: B10 was tested. Which Kd did it give?
Answer: Its Kd is 81 ± 15.5 nM.

Question: How did the Kd turn out when B11 was run?
Answer: Its Kd is 89.5 ± 24.5 nM.

Question: With B12 as the binder, how does the Kd read?
Answer: The Kd was ~110 nM.

Question: How did the Kd turn out when B13 was run?
Answer: Its Kd is 72.5 ± 13.5 nM.

Question: How did the Kd turn out when B14 was run?
Answer: The Kd was 48.5 ± 8 nM.

Question: With B15 as the binder, how does the Kd read?
Answer: Its Kd is 88 ± 21 nM.

Question: For B16, which Kd is on record?
Answer: Its Kd is 49 ± 6.5 nM.

Question: How did the Kd turn out when B17 was run?
Answer: Its Kd is 20 ± 2.55 nM.

Question: Which Kd does the source give for B18 here?
Answer: The Kd was 18.6 ± 2.6 nM.

Question: How did the Kd turn out when B19 was run?
Answer: Its Kd is 39 ± 7 nM.

Question: How did the Kd turn out when B20 was run?
Answer: The Kd was 20.9 ± 2.45 nM.

Question: Which Kd does the source give for B21 here?
Answer: Its Kd is 27.6 ± 3.15 nM.

Question: With B22 as the binder, how does the Kd read?
Answer: Its Kd is 43 ± 14 nM.

Question: How did the Kd turn out when B23 was run?
Answer: Its Kd is 20.1 ± 1.9 nM.

Question: For B24, which Kd is on record?
Answer: Its Kd is 57 ± 7.5 nM.

Question: B25 was tested. Which Kd did it give?
Answer: Its Kd is 50 ± 11 nM.

Question: With B26 as the binder, how does the Kd read?
Answer: Its Kd is 7.5 ± 0.8 nM.

Question: How did the Kd turn out when B27 was run?
Answer: The Kd was 22.2 ± 1.3 nM.

Question: How did the Kd turn out when B28 was run?
Answer: The Kd was 10.9 ± 0.6 nM.
